Like-named read-outs stand apart in the source and are kept apart here.
What was measured:
human CD47-His protein [1] = biological target: T1, human CD47-His protein (human, UniProt Q08722 19-139); assay: ELISA on human CD47-His protein, OD 450nm
T1 construct: Recombinant human CD47 with His tag; also called human CD47-his tag protein; CD47 antigen; not shown: His tag

cyno CD47-His protein = biological target: T2, cyno CD47-His protein (cynomolgus, UniProt A0A2K5X523 19-139); assay: ELISA on cyno CD47-His protein, OD 450nm [Cont'd) B]
T2 construct: also called cynomolgus CD47; not shown: His tag

Tag2-CD47 [2] = biological target: T3, Tag2-CD47 (UniProt Q08722 19-139); assay: HTRF blocking assay, ratio 665 nm/615 nm; blocked ligand: Tag1-SIRP-α binding to Tag2-CD47
T3 construct: Tagged reagent of the HTRF assay; also called CD47 (HTRF assay)
T3 sequence (Q08722 19-139): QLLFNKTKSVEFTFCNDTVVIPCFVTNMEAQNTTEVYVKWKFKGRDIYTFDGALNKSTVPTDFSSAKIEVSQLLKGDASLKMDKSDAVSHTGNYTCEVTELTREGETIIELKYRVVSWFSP
Excerpt: (§1) To evaluate the activities of humanized anti-huCD47 mAbs on blocking SIRP-α interaction, the HTRF assay was employed. The interaction between Tag1-SIRP-α and Tag2-CD47 was detected by using anti-Tag1-Terbium (HTRF donor) and anti-Tag2-XL665 (HTRF acceptor). When the donor and acceptor antibodies were brought into close proximity due to SIRP-α and CD47 binding, excitation of the donor antibody triggers fluorescent resonance energy transfer (FRET) towards the acceptor antibody, which in turn emitted specifically at 665 nm. This specific signal is directly proportional to the extent of CD47/SIRP-α interaction. Thus, a molecule blocking CD47/SIRP-α interaction would cause a reduction in HTRF signal.
Anti-CD47 antibodies B5711, B5712, B5713, B5714, B5715, and B5716 were evaluated on their activities in blocking the interaction of CD47 and SIRP-α.

human CD47-His protein [3] = biological target: T1, human CD47-His protein; assay: SPR (Biacore) affinity ranking, antibody captured on protein A chip, 5 nM human CD47-his injected
Description: (§2) To explore the binding kinetics of the humanized antibody, this example performed the affinity ranking using biacore. B5711, B5712, B5713, B5714, B5715 and B5716 mAbs were captured using protein A chip. 5 nM of human CD47-his tag protein was injected over captured antibodies for 120s at a flow rate of 30 μL/min. The antigen was allowed to dissociate for 130s.

human CD47-His protein [4] = biological target: T1, human CD47-His protein; assay: SPR (Biacore T200) full kinetics, antibody captured on protein A chip, serial dilution of human CD47-his injected
Description: The binding of the humanized antibodies to recombinant CD47 protein (human CD47-his tag) was tested by BIACORE™ using a capture method. B5712 and B5715 mAbs were captured using protein A chip. A serial dilution of human CD47-his tag protein was injected over captured antibody for 120s at a flow rate of […]. The antigen was allowed to dissociate for 600s. All the experiments were carried out on a Biacore T200.

human CD47-His protein [5] = biological target: T1, human CD47-His protein; assay: ELISA, purified antibody titrated on CD47-His protein, OD 450nm
Tag2-CD47 [6] = biological target: T3, Tag2-CD47; assay: HTRF blocking assay, ratio 665 nm/615 nm; blocked ligand: Tag1-SIRP-α binding to Tag2-CD47; remark: listed apart in the source
Excerpt: as §1, with “To further” for “To”, “functions” for “activities”, “the mouse” for “humanized”, “triggered” for “triggers”, “emits” for “emitted”
G08 and H06 antibodies were evaluated for their activity to blocking the interaction of CD47 and SIRP-α.

human CD47-His protein [7] = biological target: T1, human CD47-His protein; assay: SPR (Biacore) affinity ranking, antibody captured on protein A chip, 5 nM human CD47-his injected; affinity ranking, single 5 nM injection of human CD47-his, 130s dissociation
Description: as §2

T1 sequence (Q08722 19-139 limits assumed): as the sequence (Q08722 19-139) above

| Binder | EC50 (human CD47-His protein [1]) | EC50 (cyno CD47-His protein) | IC50 (Tag2-CD47 [2]) | Kd (human CD47-His protein [3]) | koff (human CD47-His protein [3]) | kon (human CD47-His protein [3]) | Kd (human CD47-His protein [4]) | koff (human CD47-His protein [4]) | kon (human CD47-His protein [4]) | EC50 (human CD47-His protein [5]) | IC50 (Tag2-CD47 [6]) | kon (human CD47-His protein [7]) |
| --- | --- | --- | --- | --- | --- | --- | --- | --- | --- | --- | --- | --- |
| B5712 (antibody, V domains shown, Humanized; also called HSP206A-CDRG) VH: QVQLVQSGAEVKKPGASVKVSCKASGDTFTDYYINWVRQAPGQGLEWMGWIYTGSGNTKYNEKFKGRVTMTRDTSISTAYMELSRLRSDDTAVYYCARYNPLITAVVPDYWGQGTTVTVSS VL: not shown | 5.35 ng/mL | 10.2 ng/mL | 160 pM | 1280 pM | 0.00276 s⁻¹ | 2.15e+06 M⁻¹ s⁻¹ | 847 pM | 0.00128 s⁻¹ | 1.51e+06 M⁻¹ s⁻¹ | – | – | – |
| B5715 (antibody, V domains shown, Humanized; also called HSP206B-CDRG) VH: QVQLVQSGAEVKKPGASVKVSCKASGYTFTDYYINWVRQAPGQGLEWMGWIYPGSANTKYSEKVKGRVTMTRDTSISTAYMELSRLRSDDTAVYYCARNDPLITAVVPDYWGQGTTVTVSS VL: not shown | 7.09 ng/mL | 9.23 ng/mL | 160 pM | 979 pM | 0.00234 s⁻¹ | 2.39e+06 M⁻¹ s⁻¹ | 560 pM | 0.000287 s⁻¹ | 513000 M⁻¹ s⁻¹ | – | – | – |
| B5713 (antibody, V domains shown, Humanized) VH: QIQLVQSGAEVKKPGASVKVSCKASGDTFTDYYINWVRQAPGQGLEWMGWIYTGSGNTKYNEKFKGRVTMTVDTSISTAYMELSRLRSDDTAVYYCARYNPLITAVVPDYWGQGTTVTVSS VL: not shown | 7.6 ng/mL | 9.5 ng/mL | 210 pM | 1000 pM | 0.00353 s⁻¹ | 3.53e+06 M⁻¹ s⁻¹ | – | – | – | – | – | – |
| B5716 (antibody, V domains shown, Humanized) VH: QIQLVQSGAEVKKPGASVKVSCKASGYTFTDYYINWVRQAPGQGLEWMGWIYPGSANTKYSEKVKGRVTMTVDTSITTAYMELSRLRSDDTAVYYCTRNDPLITAVVPDYWGQGTTVTVSS VL: not shown | 11.5 ng/mL | 9.79 ng/mL | 138 pM | 547 pM | 0.00452 s⁻¹ | 8.26e+06 M⁻¹ s⁻¹ | – | – | – | – | – | – |
| B5714 (antibody, V domains shown) VH: QIQLQQSGPELVKPGASVKISCKASGYTFTDYYINWVKQKPGQGPEWIGWIYPGSANTKYSEKVKGKATLTVDTSSTTAYMQLSSLTSDDTAVYFCTRNDPLITAVVPDYWGQGTTLTVSS VL: DIVMSQSPSSLAVSVGEKVTMSCRSSQSRLYSSNQKNYLAWYQQKPGQSPKLLIYWASTRESGVPDRFTGSGSGTDFTLTISSVKAEDLAVYYCQQYYNYPPTFGGGTKLEIK | 6.49 ng/mL | 8.45 ng/mL | 140 pM | 1540 pM | 0.00291 s⁻¹ | 1.89e+06 M⁻¹ s⁻¹ | – | – | – | – | – | – |
| H06 antibody (antibody, V domains shown, Mouse variable domains from a Fab phage library of immunized mice; also called H06 clone; mAb H06) VH: QIQLQQSGPELVKPGASVKISCKASGYTFTDYYINWVKQKPGQGPEWIGWIYPGSANTKYSEKVKGKATLTVDTSSTTAYMQLSSLTSDDTAVYFCTRNDPLITAVVPDYWGQGTTLTVSS VL: DIVMSQSPSSLAVSVGEKVTMSCRSSQSRLYSSNQKNYLAWYQQKPGQSPKLLIYWASTRESGVPDRFTGSGSGTDFTLTISSVKAEDLAVYYCQQYYNYPPTFGGGTKLEIK | – | – | – | – | – | – | – | – | – | 5.39 ng/mL | 210 pM | – |
| G08 antibody (antibody, V domains shown, Mouse variable domains from a Fab phage library of immunized mice; also called G08 clone; mAb G08) VH: QIQLQQSGPELVKPGASVKISCKASGDTFTDYYINWVKQKPGQGLEWIGWIYTGSGNTKYNEKFKGKTTLTVDTSSSTAYMQLNSLTSEDTAVYFCARYNPLITAVVPDYWGQGTTLTVSS VL: not shown | – | – | – | – | – | – | – | – | – | 5.93 ng/mL | 270 pM | – |
| B5711 (antibody, V domains shown, Expressed in 293F cells, purified by protein G) VH: QIQLQQSGPELVKPGASVKISCKASGDTFTDYYINWVKQKPGQGLEWIGWIYTGSGNTKYNEKFKGKTTLTVDTSSSTAYMQLNSLTSEDTAVYFCARYNPLITAVVPDYWGQGTTLTVSS VL: not shown | 4.96 ng/mL | 7.95 ng/mL | 170 pM | 819 pM | 0.00383 s⁻¹ | – | – | – | – | – | – | 4.67e+06 M⁻¹ s⁻¹ |

From patent US20220127357A1 (LEPU BIOPHARMA, published 2022)
